Source: patent US6465618

Experiments:
His-SAPK3, O08911 = target: T1, His-SAPK3, O08911
T1 chain: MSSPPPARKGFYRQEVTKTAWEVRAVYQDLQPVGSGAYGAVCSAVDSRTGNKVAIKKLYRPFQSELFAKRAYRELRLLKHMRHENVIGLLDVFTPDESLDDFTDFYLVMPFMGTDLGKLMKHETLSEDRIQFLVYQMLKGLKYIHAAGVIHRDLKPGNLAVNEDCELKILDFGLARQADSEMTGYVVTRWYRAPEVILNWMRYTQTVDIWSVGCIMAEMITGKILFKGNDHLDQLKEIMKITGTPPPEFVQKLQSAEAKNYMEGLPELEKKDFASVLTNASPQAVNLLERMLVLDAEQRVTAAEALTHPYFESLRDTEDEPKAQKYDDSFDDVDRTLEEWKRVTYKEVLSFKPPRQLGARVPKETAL

His-p38, P47811, sequence (P47811 whole entry): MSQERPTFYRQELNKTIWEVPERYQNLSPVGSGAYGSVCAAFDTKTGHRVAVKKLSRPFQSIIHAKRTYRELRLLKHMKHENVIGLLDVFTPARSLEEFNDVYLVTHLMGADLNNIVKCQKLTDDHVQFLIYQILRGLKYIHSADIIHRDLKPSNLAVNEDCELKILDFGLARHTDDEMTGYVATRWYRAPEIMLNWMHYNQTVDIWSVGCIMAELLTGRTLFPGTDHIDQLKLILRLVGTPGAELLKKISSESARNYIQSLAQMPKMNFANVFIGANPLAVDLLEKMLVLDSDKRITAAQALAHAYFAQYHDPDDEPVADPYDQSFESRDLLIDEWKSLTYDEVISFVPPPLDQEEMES
GST-JNK1, P45983, sequence (P45983 other isoform, or with tags, fused parts or gaps): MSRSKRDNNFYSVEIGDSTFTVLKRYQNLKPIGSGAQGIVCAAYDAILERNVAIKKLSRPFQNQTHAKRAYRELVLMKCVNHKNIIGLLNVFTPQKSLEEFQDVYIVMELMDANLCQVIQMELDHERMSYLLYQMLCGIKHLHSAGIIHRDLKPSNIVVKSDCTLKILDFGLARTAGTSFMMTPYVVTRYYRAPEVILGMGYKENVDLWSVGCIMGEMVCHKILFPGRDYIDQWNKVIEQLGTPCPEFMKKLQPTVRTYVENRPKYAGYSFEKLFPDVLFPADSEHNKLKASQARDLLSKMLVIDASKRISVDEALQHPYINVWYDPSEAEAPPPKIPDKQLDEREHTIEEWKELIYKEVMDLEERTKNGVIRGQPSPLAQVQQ

Protein | activation of the MAP kinase in vitro (32P phosphorylation of ATF-2, SDS-PAGE and autoradiography) (His-p38, P47811) | activation of the MAP kinase in vitro (32P phosphorylation of MBP, SDS-PAGE and autoradiography) (His-SAPK3, O08911) | activation of the MAP kinase in vitro (32P phosphorylation of GST-cJun, SDS-PAGE and autoradiography) (His-SAPKα, Q9WTU6) | phosphorylation (activation) of JNK1 in vitro, dot blot with anti-activated JNK antibody (GST-JNK1, P45983)
His-MKK6 (protein) MSQSKGKKRNPGLKIPKEAFEQPQTSSTPPRDLDSKACISIGNQNFEVKADDLEPIMELGRGAYGVVEKMRHVPSGQIMAVKRIRATVNSQEQKRLLMDLDISMRTVDCPFTVTFYGALFREGDVWICMELMDTSLDKFYKQVIDKGQTIPEDILGKIAVSIVKALEHLHSKLSVIHRDVKPSNVLINALGQVKMCDFGISGYLVDSVAKTIDAGCKPYMAPERINPELNQKGYSVKSDIWSLGITMIELAILRFPYDSWGTPFQQLKQVVEEPSPQLPADKFSAEFVDFTSQCLKKNSKERPTYPELMQHPFFTLHESKGTDVASFVKLILGD | activated p38 and SAPK3 | activated p38 and SAPK3 | did not activate SAPK | –
GST-SEK1 (protein) MAAPSPSGGGGSGGGGGTPGPIGPPASGHPAVSSMQGKRKALKLNFANPPVKSTARFTLNPNTTGVQNPHIERLRTHSIESSGKLKISPEQHWDFTAEDLKDLGEIGRGAYGSVNKMVHKPSGQIMAVKRIRSTVDEKEQKQLLMDLDVVMRSSDCPYIVQFYGALFREGDCWICMELMSTSFDKFYKYVYSVLDDVIPEEILGKITLATVKALNHLKENLKIIHRDIKPSNILLDRSGNIKLCDFGISGQLVDSIAKTRDAGCRPYMAPERIDPSASRQGYDVRSDVWSLGITLYELATGRFPYPKWNSVFDQLTQVVKGDPPQLSNSEEREFSPSFINFVNLCLTKDESKRPKYKELLKHPFILMYEERTVEVACYVCKILDQMPATPSSPMYVD | activated all of SAPK, p38 and SAPK3 | activated all of SAPK, p38 and SAPK3 | activated all of SAPK, p38 and SAPK3 | –
activated GST-MKK7 (protein) AASSLEQKLSRLEAKLKQENREARRRIDLNLDISPQRPRPIIVITLSPAPAPSQRAALQLPLANDGGSRSPSSESSPQHPTPPARPRHMLGLPSTLFTPRSMESIEIDQKLQEIMKQTGYLTIGGQRYQAEINDLENLGEMGSGTCGQVWKMRFRKTGHVIAVKQMRRSGNKEENKRILMDLDVVLKSHDCPYIVQCFGTFITNTDVFIAMELMGTCAEKLKKRMQGPIPERILGKMTVAIVKALYYLKEKHGVIHRDVKPSNILLDERGQIKLCDFGISGRLVDSKAKTRSAGCAAYMAPERIDPPDPTKPDYDIRADVWSLGISLVELATGQFPYKNCKTDFEVLTKVLQEEPPLLPGHMGFSGDFQSFVKDCLTKDHRKRPKYNKLLEHSFIKRYETLEVDVASWFKDVMAKTESPRTSGVLSQPHLPFFR | – | – | – | the activity of MKK7 was confirmed by the presence of activated JNK1
His-MKK7 (protein) AASSLEQKLSRLEAKLKQENREARRRIDLNLDISPQRPRPIIVITLSPAPAPSQRAALQLPLANDGGSRSPSSESSPQHPTPPTRPRHMLGLPSTLFTPRSMESIEIDQKLQEIMKQTGYLTIGGQRYQAEINDLENLGEMGSGTCGQVWKMRFRKTGHIIAVKQMRRSGNKEENKRILMDLDVVLKSHDCPYIVQCFGTFITNTDVFIAMELMGTCAEKLKKRMQGPIPERILGKMTVAIVKALYYLKEKHGVIHRDVKPSNILLDERGQIKLCDFGISGRLVDSKAKTRSAGCAAYMAPERIDPPDPTKPDYDIRADVWSLGISLVELATGQFPYKNCKTDFEVLTKVLQEEPPLLPGHMGFSGDFQSFVKDCLTKDHRKRPKYNKLLEHSFIKHYEILEVDVASWFKDVMAKTESPRTSGVLSQHHLPFFSGSLEESPTSPPSPKSFPLSPAIPQAQAEWVSGR | did not activate p38 and SAPK3 | did not activate p38 and SAPK3 | specifically activated SAPK, leading to the phosphorylation of c-Jun | –
